Measured values as given in IntAct's records for PubMed 21224891.

B1: X-linked retinitis pigmentosa GTPase regulator-interacting protein 1 (Homo sapiens), Q96KN7 (parent)
chain: MSHLVDPTSGDLPVRDIDAIPLVLPASKGKNMKTQPPLSRMNREELEDSFFRLREDHMLVKELSWKQQDEIKRLRTTLLRLTAAGRDLRVAEEAAPLSETARRGQKAGWRQRLSMHQRPQMHRLQGHFHCVGPASPRRAQPRVQVGHRQLHTAGAPVPEKPKRGPRDRLSYTAPPSFKEHATNENRGEVASKPSELVSGSNSIISFSSVISMAKPIGLCMPNSAHIMASNTMQVEEPPKSPEKMWPKDENFEQRSSLECAQKAAELRASIKEKVELIRLKKLLHERNASLVMTKAQLTEVQEAYETLLQKNQGILSAAHEALLKQVNELRAELKEESKKAVSLKSQLEDVSILQMTLKEFQERVEDLEKERKLLNDNYDKLLESMLDSSDSSSQPHWSNELIAEQLQQQVSQLQDQLDAELEDKRKVLLELSREKAQNEDLKLEVTNILQKHKQEVELLQNAATISQPPDRQSEPATHPAVLQENTQIEPSEPKNQEEKKLSQVLNELQVSHAETTLELEKTRDMLILQRKINVCYQEELEAMMTKADNDNRDHKEKLERLTRLLDLKNNRIKQLEGILRSHDLPTSEQLKDVAYGTRPLSLCLETLPAHGDEDKVDISLLHQGENLFELHIHQAFLTSAALAQAGDTQPTTFCTYSFYDFETHCTPLSVGPQPLYDFTSQYVMETDSLFLHYLQEASARLDIHQAMASEHSTLAAGWICFDRVLETVEKVHGLATLIGAGGEEFGVLEYWMRLRFPIKPSLQACNKRKKAQVYLSTDVLGGRKAQEEEFRSESWEPQNELWIEITKCCGLRSRWLGTQPSPYAVYRFFTFSDHDTAIIPASNNPYFRDQARFPVLVTSDLDHYLRREALSIHVFDDEDLEPGSYLGRARVPLLPLAKNESIKGDFNLTDPAEKPNGSIQVQLDWKFPYIPPESFLKPEAQTKGKDTKDSSKISSEEEKASFPSQDQMASPEVPIEAGQYRSKRKPPHGGERKEKEHQVVSYSRRKHGKRIGVQGKNRMEYLSLNILNGNTPEQVNYTEWKFSETNSFIGDGFKNQHEEEEMTLSHSALKQKEPLHPVNDKESSEQGSEVSEAQTTDSDDVIVPPMSQKYPKADSEKMCIEIVSLAFYPEAEVMSDENIKQVYVEYKFYDLPLSETETPVSLRKPRAGEEIHFHFSKVIDLDPQEQQGRRRFLFDMLNGQDPDQGHLKFTVVSDPLDEEKKECEEVGYAYLQLWQILESGRDILEQELDIVSPEDLATPIGRLKVSLQAAAVLHAIYKEMTEDLFS
partner: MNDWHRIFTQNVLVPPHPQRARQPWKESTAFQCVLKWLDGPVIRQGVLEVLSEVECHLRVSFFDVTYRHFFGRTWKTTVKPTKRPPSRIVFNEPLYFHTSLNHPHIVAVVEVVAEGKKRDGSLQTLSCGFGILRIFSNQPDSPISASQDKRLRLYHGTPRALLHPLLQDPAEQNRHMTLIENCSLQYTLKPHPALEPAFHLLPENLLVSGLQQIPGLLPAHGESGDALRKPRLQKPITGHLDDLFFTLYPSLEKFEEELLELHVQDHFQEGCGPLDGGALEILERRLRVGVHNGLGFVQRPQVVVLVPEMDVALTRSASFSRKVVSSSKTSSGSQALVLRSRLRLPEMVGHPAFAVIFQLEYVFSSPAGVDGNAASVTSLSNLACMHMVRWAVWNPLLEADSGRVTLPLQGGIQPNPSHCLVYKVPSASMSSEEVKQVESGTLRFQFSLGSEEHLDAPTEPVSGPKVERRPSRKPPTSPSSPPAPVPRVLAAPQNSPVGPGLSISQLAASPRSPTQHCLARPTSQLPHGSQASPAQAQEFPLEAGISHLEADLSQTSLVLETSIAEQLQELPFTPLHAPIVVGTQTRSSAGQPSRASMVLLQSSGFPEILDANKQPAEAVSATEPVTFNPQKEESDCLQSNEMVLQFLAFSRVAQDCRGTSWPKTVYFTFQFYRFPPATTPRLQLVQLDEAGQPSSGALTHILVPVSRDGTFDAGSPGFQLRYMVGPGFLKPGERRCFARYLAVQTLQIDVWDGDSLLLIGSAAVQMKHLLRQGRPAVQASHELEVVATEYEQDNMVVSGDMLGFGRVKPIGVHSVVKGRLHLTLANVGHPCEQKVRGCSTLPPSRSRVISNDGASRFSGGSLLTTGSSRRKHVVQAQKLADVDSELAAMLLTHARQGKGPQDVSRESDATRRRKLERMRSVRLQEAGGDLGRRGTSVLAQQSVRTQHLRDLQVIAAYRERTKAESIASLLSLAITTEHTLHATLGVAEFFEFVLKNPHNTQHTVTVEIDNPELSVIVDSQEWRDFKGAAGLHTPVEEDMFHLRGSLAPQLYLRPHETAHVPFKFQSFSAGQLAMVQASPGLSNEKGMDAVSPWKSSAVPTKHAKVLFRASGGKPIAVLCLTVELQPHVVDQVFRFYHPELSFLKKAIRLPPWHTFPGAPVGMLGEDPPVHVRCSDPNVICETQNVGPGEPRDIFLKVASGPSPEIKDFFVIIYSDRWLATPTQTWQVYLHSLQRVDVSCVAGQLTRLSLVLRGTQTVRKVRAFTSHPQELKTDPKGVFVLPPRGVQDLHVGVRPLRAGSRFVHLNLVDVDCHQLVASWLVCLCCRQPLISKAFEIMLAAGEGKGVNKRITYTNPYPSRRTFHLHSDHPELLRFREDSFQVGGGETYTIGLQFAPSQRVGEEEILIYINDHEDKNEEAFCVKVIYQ

Variants of: B1
Conditions: with nphp4_human NPHP4, O75161

| effect of a mutation on the interaction | Variant |
| --- | --- |
| decreasing interaction strength | A837G |
| decreasing interaction strength | I838V |

Second part, the variant before the results:

| Variant | effect of a mutation on the interaction |
| --- | --- |
| A635G | decreasing interaction strength |
| Q589H | with no effect |
| A764V | with no effect |
| R598Q | decreasing interaction strength |
| R812H | increasing interaction strength |
| T806I | decreasing interaction strength |

Variants of: B1
Conditions: with nphp4_human NPHP4, O75161
Remark: another data set of the same source

| Variant | effect of a mutation on the interaction |
| --- | --- |
| R598Q | disrupting interaction strength |
